Source: paper PMC3846833

Biological target: recombinant myostatin (R&D Systems) (UniProt O14793)
Experiment: SPR; Biacore 3000, CM5 chip, about 2000 RU of ligand (ActRIIB-Fc or myostatin) amine-coupled by EDC/NHS; analyte 6.25-100 nM in HBS-EP (0.01 M HEPES pH 7.4, 0.15 M NaCl, 3 mM EDTA, 0.005% P20); 21°C, 30 µL/min; association 180 s, dissociation 300 s

UniProt O14793, sequence (O14793 267-375): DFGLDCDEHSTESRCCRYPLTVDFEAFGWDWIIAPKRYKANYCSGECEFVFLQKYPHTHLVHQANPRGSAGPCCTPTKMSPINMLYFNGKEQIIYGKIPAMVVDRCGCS

Kd: 0.0979 nM
koff: 4.32e-06 s⁻¹
kon: 44100 M⁻¹ s⁻¹
Substance: recombinant putative mature sheep myostatin splice variant (rMSV, aa 275-321) (domain or fragment)
